Data on 143 substances can be found in the supplement of paper PMC12042874.

± gives the uncertainty stated by the source.

A short description of this series: amyloid nucleation score (Sup35N fusion, yeast selection) (log enrichment); library NNK1; higher = more nucleation; inactive = no reads after selection. An outline of the steps:
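Nucleation score: DiMSum log enrichment of output over input reads, centred on the mode score of non-aggregating sequences. Only sequences with at least 100 input reads were kept. Reads came from Illumina sequencing of plasmid inserts before and after 7 days of growth at 30°C without adenine and uracil, in psi-negative yeast expressing Sup35N fused to peptides of 20 random codons after 24 hours of induction with 100 μM copper sulfate.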

DVREITCLSHKRTRHQVHPV came in with an amyloid nucleation score of 0.07 ± 1.2. In the case of VTMDCLMLPYRKGNPN, the amyloid nucleation score was 0.996 ± 0.64.

THQARVLNNVRALRSTFALL returned an amyloid nucleation score of 2.5 ± 0.12.

With MMSSEVLPINSCIRSWANAL, the amyloid nucleation score is -0.431 ± 0.29.

IANGHKSSRCMQKDSSTS registered an amyloid nucleation score of 0.586 ± 0.35. In turn, LYFQAFHYQQWCIWFYFYIL showed an amyloid nucleation score of 1.42 ± 0.49. The figure for NCNLSQWLIRQPKRAVSTHT is 0.243 ± 0.33. The figure for WYHSYCVVHSFWYATSPLNS is -0.259 ± 0.33; for TFTPWKVDVLSRYRMQGCAQ it is 0.556 ± 0.47.

As for SLYVKWSQILLPLVLYVWYY, the amyloid nucleation score worked out at 0.232 ± 0.45.

For SGMRRFRWLEVFSTDQRLEA, the amyloid nucleation score result is “inactive”. In turn, VNDWALVLSNLDSNVLSSRT returned an amyloid nucleation score of 0.566 ± 0.24. To LSHRGVLVAMDRTMYPM belongs -0.621 ± 0.42; to SYTGHPMNDRWHIG, 3.4 ± 0.074; to YRLVP, -0.186 ± 0.46. The figure for FTGNLSGDCIYYFLCVVLSM is 0.47 ± 0.65. To LLSPFCVVLGSSTTGTMVNM belongs 0.287 ± 0.62; to KVRHNVVLG, -1.19 ± 0.66; to IWPLGNAIK, 1.93 ± 0.51. Turning to KLYGVSCAPLSEDHCLGKAA, the amyloid nucleation score was -0.339 ± 0.48. Regarding RNRNCFSRYCRLIV, the amyloid nucleation score is -1.45 ± 0.56.

YVQTLSNTECNAIANMHERF returned an amyloid nucleation score of 0.641 ± 0.42. To GFRYEPNWSLSFPGV belongs 0.214 ± 0.41; to TFFRTTCTICCM, 5.01 ± 0.053. The entry for LFSNTNK is “inactive”; for CCLTWAPTRDPFCLVTGVCR it is 0.193 ± 1.1. The figure for LMEFHLYQMYSLRLVARRWW is 1.32 ± 0.38. Consider FQTFSSICYMISFLIVG, for which the amyloid nucleation score came out at 0.928 ± 0.68. To YNYREWFSLIYFCIWDITWS belongs -1.01 ± 0.41; to RRGGGGSSIFLMHTAWILLE, 1.03 ± 0.34; to LNCCYKKNVGIQDMRTMDIQ, 0.247 ± 1.1.

As for IMAGHFRL, the amyloid nucleation score stood at 3.69 ± 0.082. To FEYCCFSYEIVLELARFRGF belongs -0.535 ± 1.7; to AYFIYVMYG, -1.11 ± 1.1; to SCAWRYNICTLISVRWVCK, 0.756 ± 0.34.

QDVKSMCQPFMILMVVSGGL yielded an amyloid nucleation score of -0.101 ± 0.65.

On to YMASDEVNI, for which the amyloid nucleation score was -0.232 ± 0.26. To IDEYTDMN belongs 0.146 ± 0.42; to YTDAIYHPIPRTGMYSWC, -0.194 ± 0.34; to PIFMCHSFFQAIICWLSSHL, “inactive”. Substance RSTYVCKIRVRMIYVDVKCS registered an amyloid nucleation score of 0.596 ± 0.46. To CYCNEKIVTMRAIDIVRFTC belongs -0.556 ± 0.23; to VIIRIIKFTCNSSLIIITKW, 0.694 ± 0.49; to SVGDVVYGEFLIAKQSAACV, 0.115 ± 0.44. To SFDGLYLNSCRFSLPCLLSR belongs 0.196 ± 0.26.

Substance TMIGILWCSYINVALYSGGL came in with an amyloid nucleation score of 1.22 ± 0.28. QASIYCIIRE came in with an amyloid nucleation score of 0.68 ± 0.43. Turning to YWPGLGFMFDNYSI, the amyloid nucleation score was 0.555 ± 0.71. The figure for IIIRRISGGFAVPSYAHLHS is 0.53 ± 0.32; for VDYSLSENSTVLLNIWDL it is -0.008 ± 0.46. To SNQTLPWYK belongs 0.043 ± 0.53; to ARLDRSFR, 0.451 ± 0.55. The figure for INVMWRYSFWLEFQT is -0.442 ± 0.4; for TICVYSG it is 0.008 ± 0.49; for FLSVASFTRI it is 0.246 ± 0.32. In turn, VLKDFYNDDKRFQRRL yielded an amyloid nucleation score of 0.421 ± 0.3. To PLAPMFRLWENSVRYIAKLW belongs 1.22 ± 0.64; to LGICLLCTDIWDRVGNLCSL, -0.041 ± 0.33. To TLNGFPLSISTANCEVRYDK belongs 0.005 ± 0.9; to ALCLSRARSSG, -0.152 ± 0.68; to DDSHVSCDYTLYGWSFGYMC, 2.37 ± 0.1. The figure for WCSNVNFDVRVDNIKSFRWF is 5.864 ± 0.053. As to QKLLTSMSVITW, the amyloid nucleation score came to 1.81 ± 0.65. To SRYRA belongs 5.11 ± 0.076; to ANELFTVDKKSVGYIPTHTL, 0.445 ± 0.56; to NVHWRDVGGMLFRRNNIRRI, 5.222 ± 0.052. The figure for IYQKGMVLGATRNGFSRCKG is -0.173 ± 0.3; for NMRTNNVGVGLPSFMHNSSF it is “inactive”.

Turning to TVDKTYFFYIVDCNVDKPGD, the amyloid nucleation score was found to be 1.08 ± 0.59. As for CSPVYIEFRLRQVFVARA, the amyloid nucleation score stood at 1.26 ± 0.76. The figure for IKEFRYMLKRYLLWFVDLLL is 0.762 ± 0.59. To QSMSCRAFVVTSRLVHWGTQ belongs -0.438 ± 0.6. To LCFCVKVS belongs “inactive”. SYSIYALGSRLIVEYSYKWI had an amyloid nucleation score of 0.625 ± 0.39. The figure for DTCYHINIGKTQSADQRDCT is 0.219 ± 0.25; for SRCRGSYTSSNSYWPAGDPM it is -0.777 ± 1.7; for CGSRLGEMRAVTGPHLTPMR it is -0.233 ± 1.1. The figure for SLLIELSFRTGNSEY is 0.152 ± 0.5; for SSSRV it is 0.111 ± 0.42; for YGINAVFLLIDLDERITDYL it is 0.105 ± 0.29.

On to MVIYR, for which the amyloid nucleation score was -0.517 ± 0.75. The figure for DNGFSTQA is -0.11 ± 0.82; for SGTRELALGRFHTCCNQRGK it is 0.442 ± 0.27; for PMVIKVLVGCRGYSDLNLYW it is 4.9 ± 0.079. The figure for GRLISETNLAKSYSL is -0.187 ± 0.33; for RFFMTHSYELYLEFRGAARR it is 1.28 ± 0.42.

Take GVTSR: the amyloid nucleation score is 1.25 ± 0.72. To ASWFLVISTSLVYHSATADR belongs 0.211 ± 0.39. The substance CVIDRWGDIYSNHEGNRSLL had an amyloid nucleation score of -0.025 ± 0.32. In the case of GGGQAELEGR, the amyloid nucleation score came out at 0.365 ± 0.45. For WILVGMGLGFHFFW, the amyloid nucleation score amounted to 0.86 ± 1.1.

In turn, KYFSSNSKYIYDQLIVPSRT displayed an amyloid nucleation score of -0.42 ± 1.7. The figure for VGSKVYMTSAAMYFVNRGFV is 6.11 ± 0.081. To IIVIIVLLDLDVSWVDYEVM belongs -0.157 ± 0.78; to SLWNSCSSE, 4.68 ± 0.064. The substance CNCAGDLYAVRLYDGGCSSL showed an amyloid nucleation score of -0.006 ± 0.46. The figure for SYKNVGRV is 0.273 ± 0.86. Substance ARNIVSFDGTFYSFKQTYTP returned an amyloid nucleation score of 2.12 ± 0.19. To THSRFSYGVVNR belongs 0.683 ± 1; to LDEFSTSISITEWSSKL, -0.261 ± 0.3. The figure for FTARTGALGEVVWSFSLGLG is 0.316 ± 0.45; for MENISLINGLETMYPIDRLT it is -2.15 ± 2.4. To FSQRMGICYNVREFCNEFRC belongs 1.47 ± 0.14. With IVSLNGPAKSSAFGKFSGPL, the amyloid nucleation score is -0.602 ± 0.72. The figure for YEFLIWVCPTALRRVVSSVV is 0.189 ± 0.74; for IRPINKYRIVLIWVSFVRGE it is 0.718 ± 0.73; for VCEISLN it is 0.016 ± 1.2. The substance FVLRRLALQ came in with an amyloid nucleation score of -0.992 ± 0.39.

As to MFCKAVSKERWMV, the amyloid nucleation score is -0.269 ± 0.92. To IIGSEARLD belongs “inactive”; to SVISRIKCRASRDGLHHGNH, 0.862 ± 0.28. In turn, DISRMMSISRLFFYNNVLFT returned an amyloid nucleation score of -0.524 ± 0.44. For the substance CSGCQARIWALDRRRRVEVS, the amyloid nucleation score worked out at 0.213 ± 0.69.

For the substance KDVFY, the amyloid nucleation score is -0.294 ± 0.5.

In turn, MSIAMDGYFYPSSAAPFFIT gave an amyloid nucleation score of -0.156 ± 0.42. To KEHRPWGCW belongs “inactive”; to PLSRVLGYVFIISRRTNRIL, -0.206 ± 0.28; to YMIMQLDACFECLTFQGQY, 5.9 ± 0.087.

MLRTMG gave an amyloid nucleation score of 0.746 ± 0.5. To LHPVLALPAFNVDRNSMPC belongs -0.335 ± 0.52; to PLCSNRIERMLLSVGCGRRR, -0.416 ± 0.44; to RLTDRHLLWIIMQELNGFLV, -1.09 ± 2.7. To VGICMWHN belongs 0.718 ± 0.21; to GMVFF, 0.643 ± 0.58.

As for ANMYY, the amyloid nucleation score is -0.279 ± 1.1. Take CWCGVTVCV: the amyloid nucleation score is -0.276 ± 0.59. The figure for NMSESCNMDTLYGYDLRQWV is 0.088 ± 0.33; for YWIFFNT it is 3.16 ± 0.13; for YTRMLLRGAIETGFYPNMLE it is -1.2 ± 2.1.

On to MDRDASYHGYIGHLLSWIGM, for which the amyloid nucleation score turned out to be 0.886 ± 1.1.

The substance LFCVSDSPCVCGRHSISYDW registered an amyloid nucleation score of -0.601 ± 0.9. To ENEAGATYDGMMVVGSELSS belongs 0.997 ± 0.43; to SFSSSSLYSLVCRYHSIRWA, 0.589 ± 0.28. To RWSFSSTY belongs 3.69 ± 0.085.

Substance TLNKARSDYFLKRSSE yielded an amyloid nucleation score of -0.025 ± 1. To YSYVRVIFYV belongs 0.145 ± 1; to FLVSCYPWVE, 0.248 ± 0.71; to RWPTRNFQGTVRYAR, -0.62 ± 0.7. To WGRMV belongs 0.248 ± 0.74; to YQDFYMLSRLAKLGG, 0.36 ± 0.61. To GTSVN belongs 1.08 ± 0.17; to MYGNES, -0.02 ± 0.4; to YSAALRHGQRHKWRSGRKIG, 0.674 ± 1.2.
